# Several values for one entry are separate records, joined by “and”; a condition that tells them apart may be missing. Identical values can stand only once.
# Legend:
# P12643 = assay: dynamic light scattering (DLS); BMP-2 in MES buffer pH 5, 25 °C, 173°; association of BMP-2 dimers to aggregates; details: other: dynamic light scattering (DLS)
# [1] = biological target: E. coli-derived recombinant human bone morphogenetic protein 2 (rhBMP-2) (human) (UniProt P12643); assay: native gel or EMSA; blue native PAGE of BMP-2 solutions, Western blot with anti-BMP-2 and silver stain; oligomers of the disulfide-bridged 26 kDa dimer
# Chain of E. coli-derived recombinant human bone morphogenetic protein 2 (rhBMP-2) (P12643 283-396 limits assumed): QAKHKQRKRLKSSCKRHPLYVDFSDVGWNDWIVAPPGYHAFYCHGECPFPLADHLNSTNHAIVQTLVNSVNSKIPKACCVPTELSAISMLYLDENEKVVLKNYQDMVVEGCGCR
substance,measurement,setting,value
E. coli-derived recombinant human bone morphogenetic protein 2 (rhBMP-2),percent of BMP-2 in larger aggregates (DLS),P12643,3% was apparently in the form of larger aggregates
E. coli-derived recombinant human bone morphogenetic protein 2 (rhBMP-2) (from UniProt P12643 24-396) (ligand),stoichiometry N (26 kDa BMP-2 dimers),[1],2 and 4

# Source: PMC7760923
